Assay results published in US20240261333A1, “NOVEL TARGETS FOR ENHANCING ANTI-TUMOR IMMUNITY” (THE BROAD INSTITUTE, INC., priority 2021, published 2024).

Tests used:
MAGT1 (human) = MAGT1 (human) (UniProt Q9H0U3); test: co-IP with control IgG, mass spectrometry; lysate of cells with N-FLAG B3GNT2
CCT7 (human) = CCT7 (human) (UniProt Q99832); test: as above
CD70 (human) = CD70 (human) (UniProt P32970); test: as above
SLC25A5 (human) = SLC25A5 (human) (UniProt P05141); test: as above
ILF3 (human) = ILF3 (human) (UniProt Q12906); test: as above
ZC3HAV1 (human) = ZC3HAV1 (human) (UniProt Q7Z2W4); test: as above
SLC27A4 (human) = SLC27A4 (human) (UniProt Q6P1M0); test: as above
PIGR (human) = PIGR (human) (UniProt P01833); test: as above
PIGR (human), sequence (P01833 19-764 limits assumed): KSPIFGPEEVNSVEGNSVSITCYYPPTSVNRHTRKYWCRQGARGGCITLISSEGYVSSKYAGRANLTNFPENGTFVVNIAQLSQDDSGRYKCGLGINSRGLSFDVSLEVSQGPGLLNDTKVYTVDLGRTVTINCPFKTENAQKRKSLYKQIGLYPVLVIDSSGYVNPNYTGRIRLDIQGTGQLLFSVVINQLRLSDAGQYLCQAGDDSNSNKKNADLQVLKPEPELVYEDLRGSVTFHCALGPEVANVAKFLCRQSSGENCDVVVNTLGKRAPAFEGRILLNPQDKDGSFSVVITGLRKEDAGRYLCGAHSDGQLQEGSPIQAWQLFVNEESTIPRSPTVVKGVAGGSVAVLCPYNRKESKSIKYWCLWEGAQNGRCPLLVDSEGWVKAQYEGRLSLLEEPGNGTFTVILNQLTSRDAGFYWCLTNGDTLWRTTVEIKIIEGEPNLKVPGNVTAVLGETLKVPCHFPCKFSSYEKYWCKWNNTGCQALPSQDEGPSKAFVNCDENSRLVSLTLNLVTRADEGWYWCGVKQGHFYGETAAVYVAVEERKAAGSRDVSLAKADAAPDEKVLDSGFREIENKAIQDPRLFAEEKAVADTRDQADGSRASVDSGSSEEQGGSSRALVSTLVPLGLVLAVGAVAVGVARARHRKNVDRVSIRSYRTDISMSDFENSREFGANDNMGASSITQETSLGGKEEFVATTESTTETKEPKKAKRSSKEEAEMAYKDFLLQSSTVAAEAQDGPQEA

ARF4 (human) = ARF4 (human) (UniProt P18085); test: as above
SEL1L (human) = SEL1L (human) (UniProt Q9UBV2); test: as above
MSN (human) = MSN (human) (UniProt P26038); test: as above
ARHGEF2 (human) = ARHGEF2 (human) (UniProt Q92974); test: as above
UGGT1 (human) = UGGT1 (human) (UniProt Q9NYU2); test: as above
GALNT2 (human) = GALNT2 (human) (UniProt Q10471); test: as above
EIF4A1 (human) = EIF4A1 (human) (UniProt P60842); test: as above
RARS (human) = RARS (human) (UniProt P54136); test: as above
RARS (human), sequence (P54136 whole entry): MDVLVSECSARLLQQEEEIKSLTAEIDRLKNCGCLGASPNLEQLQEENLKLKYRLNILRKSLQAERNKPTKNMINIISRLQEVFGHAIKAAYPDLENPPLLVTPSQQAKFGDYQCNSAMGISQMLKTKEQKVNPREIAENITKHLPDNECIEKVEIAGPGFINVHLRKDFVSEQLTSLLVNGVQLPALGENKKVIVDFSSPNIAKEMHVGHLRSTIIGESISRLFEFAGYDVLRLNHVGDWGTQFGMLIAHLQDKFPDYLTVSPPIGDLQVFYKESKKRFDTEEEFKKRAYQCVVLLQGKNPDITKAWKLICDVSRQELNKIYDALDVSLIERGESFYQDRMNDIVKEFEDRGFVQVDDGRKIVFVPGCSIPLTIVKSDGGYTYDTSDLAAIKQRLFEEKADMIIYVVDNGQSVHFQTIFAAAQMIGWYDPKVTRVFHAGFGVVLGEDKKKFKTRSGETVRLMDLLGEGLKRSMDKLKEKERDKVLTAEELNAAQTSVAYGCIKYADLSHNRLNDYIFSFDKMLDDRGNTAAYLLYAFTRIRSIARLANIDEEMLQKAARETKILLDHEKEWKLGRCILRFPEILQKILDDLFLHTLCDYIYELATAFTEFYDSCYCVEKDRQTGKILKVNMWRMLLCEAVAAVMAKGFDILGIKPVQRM

RRP12 (human) = RRP12 (human) (UniProt Q5JTH9); test: as above
RPS27 (human) = RPS27 (human) (UniProt P42677); test: as above
PSMD4 (human) = PSMD4 (human) (UniProt P55036); test: as above
MARS (human) = MARS (human) (UniProt P56192); test: as above
SPRR1A (human) = SPRR1A (human) (UniProt P35321); test: as above
RPL9 (human) = RPL9 (human) (UniProt P32969); test: as above
DNAJB11 (human) = DNAJB11 (human) (UniProt Q9UBS4); test: as above
MYO1C (human) = MYO1C (human) (UniProt O00159); test: as above
HSPD1 (human) = HSPD1 (human) (UniProt P10809); test: as above
HSPD1 (human), sequence (P10809 27-573 limits assumed): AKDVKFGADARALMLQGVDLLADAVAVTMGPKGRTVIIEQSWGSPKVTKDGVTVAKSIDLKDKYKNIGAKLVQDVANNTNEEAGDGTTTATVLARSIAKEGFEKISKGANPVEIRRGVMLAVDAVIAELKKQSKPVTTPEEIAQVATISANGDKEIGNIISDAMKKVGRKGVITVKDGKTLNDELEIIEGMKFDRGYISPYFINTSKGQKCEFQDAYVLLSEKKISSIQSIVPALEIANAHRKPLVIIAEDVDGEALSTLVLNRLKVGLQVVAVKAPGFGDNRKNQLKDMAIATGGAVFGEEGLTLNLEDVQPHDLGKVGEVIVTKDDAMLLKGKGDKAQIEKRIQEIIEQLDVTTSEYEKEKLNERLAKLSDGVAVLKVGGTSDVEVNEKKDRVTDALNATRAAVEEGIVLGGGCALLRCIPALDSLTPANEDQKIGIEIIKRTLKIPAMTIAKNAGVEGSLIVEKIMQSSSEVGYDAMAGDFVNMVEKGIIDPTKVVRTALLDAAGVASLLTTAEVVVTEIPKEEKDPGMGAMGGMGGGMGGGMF

GAPDH (human) = GAPDH (human) (UniProt P04406); test: as above
GAPDH (human), sequence (P04406 2-335 limits assumed): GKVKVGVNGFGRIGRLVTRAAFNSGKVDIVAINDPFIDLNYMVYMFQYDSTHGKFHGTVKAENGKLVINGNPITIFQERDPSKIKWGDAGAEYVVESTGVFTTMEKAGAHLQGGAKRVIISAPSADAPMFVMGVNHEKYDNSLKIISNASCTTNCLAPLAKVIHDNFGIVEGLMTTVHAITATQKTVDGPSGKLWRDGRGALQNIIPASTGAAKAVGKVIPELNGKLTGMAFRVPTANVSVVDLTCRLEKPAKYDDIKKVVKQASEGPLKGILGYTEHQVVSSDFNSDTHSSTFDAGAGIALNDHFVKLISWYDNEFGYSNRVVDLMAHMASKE

CCT2 (human) = CCT2 (human) (UniProt P78371); test: as above
TOR1AIP2 (human) = TOR1AIP2 (human) (UniProt Q8NFQ8); test: as above
RPL26 (human) = RPL26 (human) (UniProt P61254); test: as above
GANAB (human) = GANAB (human) (UniProt Q14697); test: as above
GANAB (human), sequence (Q14697 29-944 limits assumed): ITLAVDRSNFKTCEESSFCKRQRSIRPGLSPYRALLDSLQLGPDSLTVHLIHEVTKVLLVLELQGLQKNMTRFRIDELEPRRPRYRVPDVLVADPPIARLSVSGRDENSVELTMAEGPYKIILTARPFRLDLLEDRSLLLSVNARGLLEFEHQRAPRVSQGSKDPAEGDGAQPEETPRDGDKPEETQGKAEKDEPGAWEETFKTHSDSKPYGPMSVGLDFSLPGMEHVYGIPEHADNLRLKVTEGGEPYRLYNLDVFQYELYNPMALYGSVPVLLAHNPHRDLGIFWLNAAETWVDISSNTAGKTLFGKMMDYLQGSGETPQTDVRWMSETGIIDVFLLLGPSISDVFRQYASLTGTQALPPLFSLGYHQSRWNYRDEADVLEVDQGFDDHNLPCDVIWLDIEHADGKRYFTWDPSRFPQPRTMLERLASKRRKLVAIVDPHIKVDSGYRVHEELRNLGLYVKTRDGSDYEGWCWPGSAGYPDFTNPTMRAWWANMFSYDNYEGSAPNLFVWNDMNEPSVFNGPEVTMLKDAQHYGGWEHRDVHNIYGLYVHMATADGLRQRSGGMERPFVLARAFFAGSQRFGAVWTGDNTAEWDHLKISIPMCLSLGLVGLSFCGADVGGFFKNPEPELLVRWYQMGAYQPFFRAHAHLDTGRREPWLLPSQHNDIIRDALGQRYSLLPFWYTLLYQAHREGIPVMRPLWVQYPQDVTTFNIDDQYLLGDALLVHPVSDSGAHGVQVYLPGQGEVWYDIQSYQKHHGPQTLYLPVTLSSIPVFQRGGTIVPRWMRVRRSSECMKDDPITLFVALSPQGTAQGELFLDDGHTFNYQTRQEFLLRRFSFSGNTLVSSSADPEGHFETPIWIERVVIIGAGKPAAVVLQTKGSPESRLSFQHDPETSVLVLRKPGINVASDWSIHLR

STAU2 (human) = STAU2 (human) (UniProt Q9NUL3); test: as above
EPRS (human) = EPRS (human) (UniProt P07814); test: as above
PJA2 (human) = PJA2 (human) (UniProt O43164); test: as above
IPO13 (human) = IPO13 (human) (UniProt O94829); test: as above
IPO13 (human), sequence (O94829 whole entry): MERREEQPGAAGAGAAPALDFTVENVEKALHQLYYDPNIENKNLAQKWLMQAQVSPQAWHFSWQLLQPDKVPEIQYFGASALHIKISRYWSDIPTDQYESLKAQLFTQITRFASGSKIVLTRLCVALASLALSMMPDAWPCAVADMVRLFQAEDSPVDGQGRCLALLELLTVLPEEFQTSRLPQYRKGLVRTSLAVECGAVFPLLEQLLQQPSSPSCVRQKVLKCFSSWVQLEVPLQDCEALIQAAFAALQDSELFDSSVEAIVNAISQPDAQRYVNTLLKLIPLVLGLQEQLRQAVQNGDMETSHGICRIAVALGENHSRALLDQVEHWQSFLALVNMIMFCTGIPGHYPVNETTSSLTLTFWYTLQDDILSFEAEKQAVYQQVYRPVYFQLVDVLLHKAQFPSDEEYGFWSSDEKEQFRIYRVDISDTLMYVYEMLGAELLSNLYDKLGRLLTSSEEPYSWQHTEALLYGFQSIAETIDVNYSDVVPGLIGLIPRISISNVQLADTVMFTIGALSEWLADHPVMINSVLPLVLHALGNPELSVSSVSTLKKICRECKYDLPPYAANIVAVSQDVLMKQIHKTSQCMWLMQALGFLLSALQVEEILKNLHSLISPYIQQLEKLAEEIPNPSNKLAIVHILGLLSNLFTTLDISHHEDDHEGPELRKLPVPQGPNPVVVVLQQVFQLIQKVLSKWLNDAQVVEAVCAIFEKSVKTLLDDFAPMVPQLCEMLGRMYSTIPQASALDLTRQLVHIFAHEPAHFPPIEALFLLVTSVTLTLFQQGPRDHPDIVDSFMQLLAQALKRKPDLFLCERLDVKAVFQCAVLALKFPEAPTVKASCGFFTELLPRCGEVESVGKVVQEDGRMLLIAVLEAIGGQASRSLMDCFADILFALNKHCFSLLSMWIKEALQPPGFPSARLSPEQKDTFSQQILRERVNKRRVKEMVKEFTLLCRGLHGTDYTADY

RPS4X (human) = RPS4X (human) (UniProt P62701); test: as above
CTHRC1 (human) = CTHRC1 (human) (UniProt Q96CG8); test: as above
SSRP1 = SSRP1 (UniProt Q08945); test: co-IP, IgG control, C-FLAG B3GNT2 cell lysate, mass spectrometry

SLC25A5 (human), sequence (P05141 2-298 limits assumed): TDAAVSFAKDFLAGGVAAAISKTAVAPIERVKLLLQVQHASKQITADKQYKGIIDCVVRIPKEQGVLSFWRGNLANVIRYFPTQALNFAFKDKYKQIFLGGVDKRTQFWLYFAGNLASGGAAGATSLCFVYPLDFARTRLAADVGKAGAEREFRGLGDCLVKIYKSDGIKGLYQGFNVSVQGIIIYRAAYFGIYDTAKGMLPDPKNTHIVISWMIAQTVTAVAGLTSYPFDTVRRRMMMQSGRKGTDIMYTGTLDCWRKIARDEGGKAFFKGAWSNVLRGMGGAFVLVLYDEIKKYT
CCT7 (human), sequence (Q99832 45-543 limits assumed): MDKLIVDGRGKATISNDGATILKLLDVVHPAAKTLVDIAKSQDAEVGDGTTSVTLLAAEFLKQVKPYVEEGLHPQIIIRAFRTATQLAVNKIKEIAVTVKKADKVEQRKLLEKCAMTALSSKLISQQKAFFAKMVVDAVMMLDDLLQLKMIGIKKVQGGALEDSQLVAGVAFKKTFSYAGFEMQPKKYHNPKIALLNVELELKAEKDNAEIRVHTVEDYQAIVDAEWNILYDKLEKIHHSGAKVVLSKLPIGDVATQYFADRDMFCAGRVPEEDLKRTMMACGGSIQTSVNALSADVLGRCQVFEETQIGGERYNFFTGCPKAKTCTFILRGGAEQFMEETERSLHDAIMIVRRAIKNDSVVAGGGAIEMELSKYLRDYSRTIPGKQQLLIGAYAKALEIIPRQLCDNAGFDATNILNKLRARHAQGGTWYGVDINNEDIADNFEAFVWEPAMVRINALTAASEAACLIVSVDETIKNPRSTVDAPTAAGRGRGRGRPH

## IgG control (Millipore Sigma 12-371) (antibody)
MAGT1 (human)
  co-IP mass spectrometry count: 0
CCT7 (human)
  co-IP mass spectrometry count: 0
CD70 (human)
  co-IP mass spectrometry count: 0
SLC25A5 (human)
  co-IP mass spectrometry count: 6
ILF3 (human)
  co-IP mass spectrometry count: 0
ZC3HAV1 (human)
  co-IP mass spectrometry count: 0
SLC27A4 (human)
  co-IP mass spectrometry count: 0
PIGR (human)
  co-IP mass spectrometry count: 0
ARF4 (human)
  co-IP mass spectrometry count: 0
SEL1L (human)
  co-IP mass spectrometry count: 0
MSN (human)
  co-IP mass spectrometry count: 0
ARHGEF2 (human)
  co-IP mass spectrometry count: 0
UGGT1 (human)
  co-IP mass spectrometry count: 0
GALNT2 (human)
  co-IP mass spectrometry count: 0
EIF4A1 (human)
  co-IP mass spectrometry count: 0
RARS (human)
  co-IP mass spectrometry count: 0
RRP12 (human)
  co-IP mass spectrometry count: 0
RPS27 (human)
  co-IP mass spectrometry count: 0
PSMD4 (human)
  co-IP mass spectrometry count: 0
MARS (human)
  co-IP mass spectrometry count: 0
SPRR1A (human)
  co-IP mass spectrometry count: 0
RPL9 (human)
  co-IP mass spectrometry count: 0
DNAJB11 (human)
  co-IP mass spectrometry count: 0
MYO1C (human)
  co-IP mass spectrometry count: 0
HSPD1 (human)
  co-IP mass spectrometry count: 0
GAPDH (human)
  co-IP mass spectrometry count: 11
CCT2 (human)
  co-IP mass spectrometry count: 0
TOR1AIP2 (human)
  co-IP mass spectrometry count: 0
RPL26 (human)
  co-IP mass spectrometry count: 5
GANAB (human)
  co-IP mass spectrometry count: 0
STAU2 (human)
  co-IP mass spectrometry count: 0
EPRS (human)
  co-IP mass spectrometry count: 0
PJA2 (human)
  co-IP mass spectrometry count: 0
IPO13 (human)
  co-IP mass spectrometry count: 0
RPS4X (human)
  co-IP mass spectrometry count: 12
CTHRC1 (human)
  co-IP mass spectrometry count: 0
SSRP1
  co-IP mass spectrometry count: 0
